Measured values reported in patent US20090280128A1.

Assays:
[1] = biological target: C-FLAG ILT7 (human ILT7 with FLAG tag at the C terminus, co-expressed with Myc-FcRγ) (human) (UniProt P59901); assay: flow cytometry on ILT7-CHO cells, control antibody, APC goat anti-mouse IgG then FITC donkey anti-goat IgG
[2] = biological target: C-FLAG ILT7 (human ILT7 with FLAG tag at the C terminus, co-expressed with Myc-FcRγ) (human) (UniProt P59901); assay: flow cytometry on ILT7-CHO cells, control antibody, APC-labeled goat anti-mouse IgG

Chain of C-FLAG ILT7 (human ILT7 with FLAG tag at the C terminus, co-expressed with Myc-FcRγ) (human) (P59901 other isoform, or with tags, fused parts or gaps): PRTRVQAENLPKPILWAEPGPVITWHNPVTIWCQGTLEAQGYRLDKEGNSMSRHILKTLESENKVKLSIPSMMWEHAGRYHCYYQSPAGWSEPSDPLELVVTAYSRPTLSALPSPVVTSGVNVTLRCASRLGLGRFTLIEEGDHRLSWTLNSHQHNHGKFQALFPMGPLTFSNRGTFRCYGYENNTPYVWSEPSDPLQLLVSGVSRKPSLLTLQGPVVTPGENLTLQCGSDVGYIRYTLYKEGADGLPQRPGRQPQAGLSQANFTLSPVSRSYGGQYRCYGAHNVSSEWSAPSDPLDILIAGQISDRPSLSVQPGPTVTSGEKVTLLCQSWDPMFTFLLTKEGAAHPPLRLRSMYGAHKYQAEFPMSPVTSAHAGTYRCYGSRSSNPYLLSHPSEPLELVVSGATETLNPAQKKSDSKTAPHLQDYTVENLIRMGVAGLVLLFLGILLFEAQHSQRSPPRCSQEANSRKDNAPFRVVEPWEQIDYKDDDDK

Mouse IgG2a (antibody)
FITC mean fluorescence intensity, incubation at 4 °C [1]: 3.7
FITC mean fluorescence intensity, incubation at 37 °C [1]: 4.2
APC mean fluorescence intensity, incubation at 4 °C [2]: 3
APC mean fluorescence intensity, incubation at 37 °C [2]: 3.64
